Common to all, as to test: FRET or BRET
(In general: BRET reads energy transfer from a luciferase to a nearby fluorophore.)

For test [1], the target named is Monocysteine-reactive type A CCK receptor construct A204C, derivatized with Alexa^546 at position 204 (UniProt P30551).
The target of test [2] is Monocysteine-reactive type A CCK receptor construct C94, derivatized with Alexa^546 at position 94 (UniProt P30551).
Test [3] concerns the target Monocysteine-reactive type A CCK receptor construct N102C, derivatized with Alexa^546 at position 102 (UniProt P30551).
The target in test [4] is Monocysteine-reactive type A CCK receptor construct T341C, derivatized with Alexa^546 at position 341 (UniProt P30551).

Take Aladan^33-CCK (peptide): the efficiency of energy transfer worked out at 53% in test [1], 58% in test [2], 70% in test [3] and 66% in test [4].

Take Aladan^24-CCK (peptide): the efficiency of energy transfer in test [1] was 53%; in test [2] it was 56%; in test [3] it was 64%; in test [4], 64%.

Regarding Aladan^29-CCK (peptide), the efficiency of energy transfer in test [1] stood at 54%; in test [2], 55%; in test [3] it was 66%; in test [4], 67%.

These data come from publication PMC3648886.
